What all share (experiment): cryo-EM structure
Assay [1] addresses T1, Med17 (S. pombe Mediator subunit) (S. pombe, UniProt P87306 1-545).
T1 sequence (looked up): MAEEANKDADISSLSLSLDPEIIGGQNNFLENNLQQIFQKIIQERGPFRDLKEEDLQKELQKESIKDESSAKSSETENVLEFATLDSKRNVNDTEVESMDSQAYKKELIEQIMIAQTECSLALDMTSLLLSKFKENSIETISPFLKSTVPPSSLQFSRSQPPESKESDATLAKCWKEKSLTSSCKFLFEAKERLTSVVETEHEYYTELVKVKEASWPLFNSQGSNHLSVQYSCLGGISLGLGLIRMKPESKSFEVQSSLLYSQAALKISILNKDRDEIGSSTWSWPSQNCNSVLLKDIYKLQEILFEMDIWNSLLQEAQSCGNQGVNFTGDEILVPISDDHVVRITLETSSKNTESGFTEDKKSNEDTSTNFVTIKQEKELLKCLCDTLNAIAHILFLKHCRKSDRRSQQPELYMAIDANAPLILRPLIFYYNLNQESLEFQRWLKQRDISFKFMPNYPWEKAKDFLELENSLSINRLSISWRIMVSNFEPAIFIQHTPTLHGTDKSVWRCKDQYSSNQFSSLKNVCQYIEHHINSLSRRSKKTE

Assay [2] deals with T2, Med14 (S. pombe Mediator subunit) (S. pombe, UniProt Q9P7Y4 1-879).
T2 sequence (looked up): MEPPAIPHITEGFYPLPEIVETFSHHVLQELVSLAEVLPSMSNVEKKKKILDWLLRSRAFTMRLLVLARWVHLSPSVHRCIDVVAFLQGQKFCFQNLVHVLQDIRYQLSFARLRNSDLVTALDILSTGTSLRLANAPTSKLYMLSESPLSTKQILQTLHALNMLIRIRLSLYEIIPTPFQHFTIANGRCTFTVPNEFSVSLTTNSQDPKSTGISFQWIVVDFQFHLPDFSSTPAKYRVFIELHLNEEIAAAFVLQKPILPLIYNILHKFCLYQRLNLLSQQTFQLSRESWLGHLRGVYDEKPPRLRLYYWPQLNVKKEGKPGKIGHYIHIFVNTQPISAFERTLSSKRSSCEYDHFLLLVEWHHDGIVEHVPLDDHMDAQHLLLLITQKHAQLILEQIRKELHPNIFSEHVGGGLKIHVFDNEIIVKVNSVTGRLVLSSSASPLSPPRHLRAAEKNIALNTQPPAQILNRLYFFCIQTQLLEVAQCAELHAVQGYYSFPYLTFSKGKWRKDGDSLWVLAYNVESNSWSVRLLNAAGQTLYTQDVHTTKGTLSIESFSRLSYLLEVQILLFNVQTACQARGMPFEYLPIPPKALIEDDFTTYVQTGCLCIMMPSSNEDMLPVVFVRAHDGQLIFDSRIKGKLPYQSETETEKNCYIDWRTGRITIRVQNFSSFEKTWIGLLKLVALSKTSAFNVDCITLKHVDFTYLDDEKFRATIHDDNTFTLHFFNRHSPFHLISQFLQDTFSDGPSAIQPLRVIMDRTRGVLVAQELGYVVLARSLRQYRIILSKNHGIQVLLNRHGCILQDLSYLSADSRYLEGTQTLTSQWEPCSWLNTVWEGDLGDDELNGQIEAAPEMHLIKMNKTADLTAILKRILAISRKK

Assay [3] deals with T3, Med18 (S. pombe Mediator subunit) (S. pombe, UniProt O14198 1-207).
T3 sequence (looked up): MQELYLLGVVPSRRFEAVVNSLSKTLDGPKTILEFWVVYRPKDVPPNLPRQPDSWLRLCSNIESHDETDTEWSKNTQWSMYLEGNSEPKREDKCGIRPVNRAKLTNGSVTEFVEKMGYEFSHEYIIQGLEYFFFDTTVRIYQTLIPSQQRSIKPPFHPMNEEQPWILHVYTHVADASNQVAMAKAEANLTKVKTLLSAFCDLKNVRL

B1: Med27 (S. pombe Mediator subunit) (natural protein, UniProt Q10477 1-273, looked up)
chain: MSLEEQRTRDELKHKLLDLNQLHEQLAELRTICPSLLKLLHPETGTSRKFEKSAQEAIEKVNSFYTHLKSSQNVFDYAEKSLQADSSNLLPTYLYNSEDLSNDTENNETKSINGKSALDLKEPHHSELHDNDNFQNSDINIESFKGDIEASGSILTTHENKSFTLKLANELEFIFFHDTRGKFSVYCSSSKDDAITFSINRNNNFLGNLWSLMPKILDYQHLYSKPCDFCKSLISPVYLELPSVRRNANSTVKPTSKDILALHAECVPAQSDL
As for B1, the binding result in assay [1] and in assay [2] was “binds” in each case.

B2: Med20 (S. pombe Mediator subunit) (natural protein, UniProt Q10317 1-193, looked up)
chain: MPVHGVIYYSSPSMATFLSPAQDNLVRTYFAQHLKKWVVQYKLYRNAVTPKTLEFLKQNINPSMLACVDEATMIDAEPELEDIIVRTKLWNFRQSFTIEGSIYEVGSFKVAIANVLQKSVWKGILFHVTYDGTESVDLARPIIQEFFLKCFLQNNKSVTPVYESFFNQPRHSLDSKLLLQLFKQRIDTVSQRT
For the molecule B2, the binding result in assay [3] is listed as “binds”.

B3: Med7-TAP (S. pombe Mediator subunit) (natural protein, UniProt O60104 1-376, looked up)
chain: MEPNEGVQLFSAFPPPPPYYKLFTRENIEKVISNMEKEAKHEDDANTLQPKTEEEIESLAKLFKKPSCLTSGTYQMFGDTWRLDEAIPSLKEFGIPELYKDIKDGEDEIEVVEYDPKSNAIVGTSFTRVHDYDKNSPIENEKILEDDQHTAMKEKDNESDKTMKDVEEKTEPSLKKEEEDIQMKEPLDSQDTGAVSASSVNEGFRADQKSKDGETSDLIKIPRRAYELRFLSRSLMLNFLELLGIMAKAPEQFPSKVENIRVLLLNLHHLINDYRPHQSRESLIMLLEKQLKHEESQVELLRTHNRQMTETLEKYKSLDFNMEKEGDVIQQLKSSIKKPLSGAEDEQKSRSMFSKNDEKLKKSLELMEDVIKRDLS
Consider B3, for which, in assay [1], the binding result is “binds”.

B4: Med31 (S. pombe Mediator subunit) (natural protein, UniProt Q9USH1 1-139, looked up)
chain: METKWLLSKVPDDKSRFEIELEFVQMLSNPWYLNFLAQHKYFEDEAFLQYLEYMEYWREPEYVKFIIYPTCLHMLTLLKNPQFRNDISRADLSKQVNDEIYYEWLGKGLQQYGSADDATLSQPQQEEDEKKVDVKKENE
Take B4: in assay [1], the binding result is on record as “binds”.
